Test results published in patent US20240239885A1, “ANTIBODY CONJUGATE COMPRISING ANTI-P-CADHERIN ANTIBODY AND USES THEREOF” (WUXI BIOLOGICS IRELAND LIMITED, priority 2021, published 2024).
Starred links: 1 amine or outer side, 2 acyl side, 3 side chain; linkers in the order of their positions; H or OH if unused. Non-standard residues stand in square brackets, D forms with d. Residues, ends and D or L forms follow the SMILES beside them. *: point of attachment. Dolaproine = CO[C@@H]([C@@H]1CCCN1)[C@@H](C)C(=O)O; Hexanoyl(6-maleimido) = O=C1C=CC(=O)N1CCCCCC(=O)*; Dil = CC[C@H](C)[C@H](NC)[C@@H](CC(=O)O)OC; PABC = O=C(OCc1ccc(N[*:1])cc1)[*:2]; X1 = C[C@@H](N*)[C@@H](O)c1ccccc1; Cit = NC(=O)NCCC[C@H](N)C(=O)O; NMeV = CN[C@H](C(=O)O)C(C)C

Legend:
[1] = test system: A549 cells; assay: Cytotoxicity assay of ADC (Cell Titer Glo) on A549; format: cell-based, human; details: for IC50: A549 (P-cadherin low expressing), 5 days, read-out: IC50 (nM), ADC toxicity; for Max Inh %: A549, 5 days
[2] = test system: MDA-MB-453 cells; assay: Cytotoxicity assay of ADC (Cell Titer Glo) on MDA-MB-453; format: cell-based, human; details: for IC50: MDA-MB-453 (P-cadherin low expressing), 5 days, read-out: IC50 (nM), ADC toxicity; for Max Inh %: MDA-MB-453, 5 days
[3] = test system: NCI-H1650 cells; assay: Cytotoxicity assay of ADC (Cell Titer Glo) on NCI-H1650; format: cell-based, human; details: NCI-H1650, 5 days
[4] = test system: HT-29 cells; assay: Cytotoxicity assay of ADC (Cell Titer Glo) on HT-29; details: for Max Inh %: HT-29, 5 days; for IC50: read-out: IC50 (nM), ADC cytotoxicity, HT-29 (P-cadherin low expressing), 5 days
[5] = test system: HCC-70 cells; assay: Cytotoxicity assay of ADC (Cell Titer Glo) on HCC-70; details: HCC-70, 5 days; for IC50: read-out: IC50 (nM), ADC cytotoxicity
[6] = test system: HCC-1954 cells; assay: Cytotoxicity assay of ADC (Cell Titer Glo) on HCC-1954; details: HCC-1954, 5 days; for IC50: read-out: IC50 (nM), ADC cytotoxicity
[7] = molecular target: T1, human P-cadherin expressed on cells (human, UniProt P22223 108-829); assay: FACS on HCT-116 cells
T1 sequence (P22223 108-829): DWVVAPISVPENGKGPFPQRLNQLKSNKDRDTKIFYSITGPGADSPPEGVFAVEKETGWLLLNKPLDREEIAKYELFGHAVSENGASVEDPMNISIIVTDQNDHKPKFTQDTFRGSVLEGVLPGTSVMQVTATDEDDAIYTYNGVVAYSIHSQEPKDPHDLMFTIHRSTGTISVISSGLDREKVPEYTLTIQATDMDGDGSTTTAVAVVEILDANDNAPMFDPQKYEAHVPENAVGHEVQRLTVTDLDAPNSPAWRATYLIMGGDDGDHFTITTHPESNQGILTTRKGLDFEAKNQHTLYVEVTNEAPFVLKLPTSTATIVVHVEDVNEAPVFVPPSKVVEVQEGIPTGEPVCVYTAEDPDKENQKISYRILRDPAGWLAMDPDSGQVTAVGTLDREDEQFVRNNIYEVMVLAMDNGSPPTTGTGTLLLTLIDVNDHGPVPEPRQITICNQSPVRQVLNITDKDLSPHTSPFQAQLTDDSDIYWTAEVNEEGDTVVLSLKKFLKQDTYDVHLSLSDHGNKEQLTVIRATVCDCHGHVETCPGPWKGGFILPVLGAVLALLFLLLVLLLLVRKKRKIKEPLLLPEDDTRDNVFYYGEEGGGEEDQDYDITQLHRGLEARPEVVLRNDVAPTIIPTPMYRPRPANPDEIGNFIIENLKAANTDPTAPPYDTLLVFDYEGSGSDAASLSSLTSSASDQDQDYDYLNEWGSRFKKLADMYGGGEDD
Protocol: Binding of the ADCs to P-cadherin expressed on HCT-116 cells was determined by flow cytometry analysis using the same procedure as described above. […] 1×10⁵ cells/well (100 μL) were added to each well of a 96-well U-plate (Corning, #3799) and centrifuged at 1500 rpm (Eppendorf, #5810R) for 5 minutes before removing the supernatant. Antibodies serially diluted in 1% BSA/1×PBS (Ca+/Mg+) were added at 100 μL/well to the pelleted cells and incubated at 4° C. for 1 hour. […] Cells were washed two times with 180 μL/well of 1% BSA/1×PBS (Ca+/Mg+) by centrifugation at 1500 rpm for 5 minutes at 4° C. Pelleted cells were resuspended in 100 μL/well Alexa647 conjugated Goat anti-human IgG Fc (Jackson, #109-605-098) 1:500 diluted in 1% BSA/1×PBS (Ca+/Mg+) for 30 minutes at 4° C. in the dark. Cells were then washed two times as described above. After the final wash, cells were resuspended in 100 μL 1% BSA/1×PBS (Ca+/Mg+) and fluorescence values were measured with a FACS Canto II cytometer (BD Biosciences). The amount of cell surface bound anti-P-Cadherin antibody was assessed by measuring the mean fluorescence (MFI).

[8] = molecular target: T1, human P-cadherin expressed on cells; assay: FACS on NCI-H1650 cells
[9] = molecular target: T2, P-Cadherin ECD domain 1 (aa 108-236) (human, UniProt P22223 108-236); assay: direct ELISA, coated antigen
T2 construct: range 108-236; also called huCDH3 ECD Domain1
T2 sequence (P22223 108-236 limits assumed): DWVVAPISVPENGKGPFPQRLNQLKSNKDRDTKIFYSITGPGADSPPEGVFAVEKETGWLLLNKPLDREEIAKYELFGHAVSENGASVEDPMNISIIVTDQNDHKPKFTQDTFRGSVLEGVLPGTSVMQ
Protocol: (§1) The binding domains of the antibody drug conjugates to human P-Cadherin extra cellular domain (ECD) were determined by a direct protein binding ELISA. 96-well high protein binding ELISA plates (Nunc) were coated overnight at 4° ° C. with antigens in coating buffer. All wells were washed three time with PBS/0.5%. Tween-20 (v/v) and all the following wash steps in the assay were performed the same. The wells were then blocked for one hour with 2% BSA (Bovogen)/1×PBS (Ca+/Mg+) (Gibco) and washed three times. For the primary antibody binding, the testing antibodies including the BMKs and our antibodies serially diluted in 2% BSA/1×PBS (Ca+/Mg+) were added to the relevant wells and incubated at ambient temperature for two hours. Plates were washed three times prior to the addition of 100 μL of secondary antibody Goat anti-Human-IgG-F(ab′)2-HRP (Jackson) diluted in 2% BSA/1×PBS (Ca+/Mg+). Plates were incubated at room temperature for one hour, followed by six washes as describe above.
(§2) For the binding detection, 100 μL Tetramethylbenzidine (TMB) Substrate solution (Invitrogen) was added to all wells before stopping the reaction with 100 μL 2M HCl. The extent of the testing Abs binding to P-Cadherin ECD (i.e. huCDH3 ECD, Uniprot ID: P22223 aa108-654), P-Cadherin ECD domain 1 (aa 108-236), P-Cadherin ECD domain 1+2 (aa 108-348), P-Cadherin ECD domain 1+2+3 (aa 108-461), P-Cadherin ECD domain 1+2+3+4 (aa 108-550) proteins were determined by measuring the OD450-OD540 absorbance using the SpectraMax® M5e microplate reader. EC50 values were obtained by the four-parameter non-linear regression analysis using GraphPad Prism software.

[10] = molecular target: T3, P-Cadherin ECD domain 1+2 (aa 108-348) (human, UniProt P22223 108-348); assay: direct ELISA, coated antigen
T3 construct: range 108-348; also called huCDH3 ECD Domain1 + 2
T3 sequence (P22223 108-348 limits assumed): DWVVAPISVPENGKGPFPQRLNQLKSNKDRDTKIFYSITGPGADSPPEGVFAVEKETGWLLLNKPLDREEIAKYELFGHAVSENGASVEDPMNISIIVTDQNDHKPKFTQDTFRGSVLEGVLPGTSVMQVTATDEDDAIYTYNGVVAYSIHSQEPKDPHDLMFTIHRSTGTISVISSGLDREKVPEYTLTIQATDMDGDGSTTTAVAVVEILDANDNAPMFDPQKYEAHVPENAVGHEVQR
Protocol: as §1, §2

[11] = molecular target: T4, P-Cadherin ECD domain 1+2+3 (aa 108-461) (human, UniProt P22223 108-461); assay: direct ELISA, coated antigen
T4 construct: range 108-461; also called huCDH3 ECD Domain1 + 2 + 3
T4 sequence (P22223 108-461 limits assumed): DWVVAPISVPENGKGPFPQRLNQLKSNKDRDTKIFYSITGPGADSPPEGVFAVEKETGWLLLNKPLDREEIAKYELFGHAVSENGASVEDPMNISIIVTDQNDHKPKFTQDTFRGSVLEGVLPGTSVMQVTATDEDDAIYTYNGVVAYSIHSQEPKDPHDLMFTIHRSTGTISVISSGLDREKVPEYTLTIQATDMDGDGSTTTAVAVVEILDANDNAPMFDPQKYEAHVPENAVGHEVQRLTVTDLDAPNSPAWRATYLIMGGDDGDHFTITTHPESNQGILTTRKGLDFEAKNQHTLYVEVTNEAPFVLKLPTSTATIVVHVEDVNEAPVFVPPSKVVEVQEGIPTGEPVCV
Protocol: as §1, §2

[12] = molecular target: T1, human P-cadherin expressed on cells; assay: cell-based or functional assay
[13] = molecular target: T1, human P-cadherin expressed on cells; assay: cell-based or functional assay; remark: listed apart in the source
[14] = molecular target: T1, human P-cadherin expressed on cells; assay: cell-based or functional assay; remark: listed apart in the source
[15] = molecular target: T1, human P-cadherin expressed on cells; assay: cell-based or functional assay; remark: listed apart in the source
[16] = molecular target: T1, human P-cadherin expressed on cells; assay: cell-based or functional assay; remark: listed apart in the source
[17] = molecular target: T5, P-Cadherin ECD domain 1+2+3+4 (aa 108-550) (human, UniProt P22223 108-550); assay: direct ELISA, coated antigen
T5 construct: range 108-550; also called huCDH3 ECD Domain1 + 2 + 3 + 4
T5 sequence (P22223 108-550 limits assumed): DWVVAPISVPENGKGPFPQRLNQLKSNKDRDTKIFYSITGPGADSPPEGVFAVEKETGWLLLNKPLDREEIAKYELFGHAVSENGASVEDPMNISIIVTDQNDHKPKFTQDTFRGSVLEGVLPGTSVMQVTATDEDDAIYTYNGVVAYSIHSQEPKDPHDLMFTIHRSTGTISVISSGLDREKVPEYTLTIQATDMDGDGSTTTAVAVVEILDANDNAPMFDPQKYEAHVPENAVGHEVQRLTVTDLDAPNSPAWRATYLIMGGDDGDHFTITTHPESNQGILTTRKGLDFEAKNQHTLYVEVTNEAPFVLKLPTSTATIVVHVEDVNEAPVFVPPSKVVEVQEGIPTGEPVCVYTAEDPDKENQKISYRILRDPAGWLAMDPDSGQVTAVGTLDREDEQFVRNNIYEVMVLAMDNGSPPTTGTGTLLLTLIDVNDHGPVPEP
Protocol: as §1, §2

[18] = molecular target: T6, P-Cadherin ECD (huCDH3 ECD, Uniprot ID: P22223 aa108-654) (human, UniProt P22223 108-654); assay: direct ELISA, coated antigen
T6 construct: range 108-654; also called extracellular domain of human P-cadherin
T6 sequence (P22223 other isoform, or with tags, fused parts or gaps limits assumed): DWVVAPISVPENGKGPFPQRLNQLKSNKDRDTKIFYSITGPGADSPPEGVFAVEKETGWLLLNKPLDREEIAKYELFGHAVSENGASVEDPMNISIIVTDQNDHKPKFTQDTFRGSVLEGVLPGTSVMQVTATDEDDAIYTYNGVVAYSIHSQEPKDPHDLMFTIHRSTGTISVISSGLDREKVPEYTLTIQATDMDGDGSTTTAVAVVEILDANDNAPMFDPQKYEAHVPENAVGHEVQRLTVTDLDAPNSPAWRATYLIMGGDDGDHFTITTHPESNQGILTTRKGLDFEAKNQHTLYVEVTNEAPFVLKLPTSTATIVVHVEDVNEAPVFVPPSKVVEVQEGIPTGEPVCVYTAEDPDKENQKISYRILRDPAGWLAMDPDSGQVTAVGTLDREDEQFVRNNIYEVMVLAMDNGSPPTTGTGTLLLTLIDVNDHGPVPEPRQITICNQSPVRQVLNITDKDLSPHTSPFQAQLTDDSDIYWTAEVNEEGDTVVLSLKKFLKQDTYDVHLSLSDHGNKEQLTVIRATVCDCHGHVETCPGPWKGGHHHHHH
Protocol: as §1, §2

[19] = molecular target: T1, human P-cadherin expressed on cells; assay: FACS on HCT-116 cells after 1 day in human serum at 37 C
Protocol: (§3) The antibody stability in human serum was tested by FACS. Briefly, human serum was freshly isolated by centrifuging the fresh blood twice at 4000 rpm for 10 minutes. […] As a control, antibodies serum mix was frozen immediately without 37° C. incubation. For the FACS analysis, the samples from different time points were free-thawed simultaneously at 4° C. […] The cells were washed twice with 1% BSA/1×PBS (Ca+/Mg+). Alexa647 conjugated Goat anti-human IgG Fc (Jackson, #109-605-098) 1:500 diluted in 1% BSA/1×PBS (Ca+/Mg+) were added to the cells and incubated at 4° C. for 30 minutes. Cells were washed twice in the same buffer and the mean fluorescence (MFI) of stained cells was measured using a FACS Canto II cytometer (BD Biosciences) and analyzed by FlowJo. Wells containing no antibody or secondary antibody only were used to establish background fluorescence. Four-parameter non-linear regression analysis was used to obtain EC50 values for cell binding using GraphPad Prism6 software.

[20] = molecular target: T1, human P-cadherin expressed on cells; assay: FACS on HCT-116 cells after 4 days in human serum at 37 C
Protocol: as §3

[21] = molecular target: T1, human P-cadherin expressed on cells; assay: FACS on HCT-116 cells after 7 days in human serum at 37 C
Protocol: as §3

[22] = molecular target: T1, human P-cadherin expressed on cells; assay: FACS affinity test on NCI-H1650 cells, quantitative beads
[23] = molecular target: T1, human P-cadherin expressed on cells; assay: FACS on HCT-116 cells after 14 days in human serum at 37 C
Protocol: as §3

[24] = molecular target: T2, P-Cadherin ECD domain 1 (aa 108-236); assay: direct ELISA on coated huCDH3 ECD Domain1, goat anti-human IgG F(ab')2-HRP detection
Protocol: as §1, with “Plates were washed three times prior to the addition of 100 μL of secondary antibody Goat anti-Human-IgG-F(ab′)2-HRP (Jackson) diluted in 2% BSA/1×PBS (Ca+/Mg+). Plates were incubated at room temperature for one hour, followed by six washes as describe above.” left out
as §2, with “EC50 values were obtained by the four-parameter non-linear regression analysis using GraphPad Prism software.” left out

[25] = molecular target: T3, P-Cadherin ECD domain 1+2 (aa 108-348); assay: direct ELISA on coated huCDH3 ECD Domain1+2, goat anti-human IgG F(ab')2-HRP detection
Protocol: as §1, with “Plates were washed three times prior to the addition of 100 μL of secondary antibody Goat anti-Human-IgG-F(ab′)2-HRP (Jackson) diluted in 2% BSA/1×PBS (Ca+/Mg+). Plates were incubated at room temperature for one hour, followed by six washes as describe above.” left out
as §2, with “EC50 values were obtained by the four-parameter non-linear regression analysis using GraphPad Prism software.” left out

CC[C@H](C)[C@@H]([C@@H](CC(=O)N1CCC[C@H]1[C@H](OC)[C@@H](C)C(=O)N[C@H](C)[C@@H](O)c1ccccc1)OC)N(C)C(=O)[C@@H](NC(=O)[C@@H](NC)C(C)C)C(C)C [Free drug (MMAE), mono-methyl auristatin E] (H-[NMeV]V[Dil][Dolaproine]-X1)
IC50 [1]: 1.37 nM | Max Inh % [1]: 89.2% | IC50 [2]: 1.28 nM | Max Inh % [2]: 96.7% | Max Inh % [3]: 81% | Max Inh % [4]: 95.5% | IC50 [4]: 0.52 nM | Max Inh % [5]: 87.2% | IC50 [5]: 0.23 nM | Max Inh % [6]: 97.7% | IC50 [6]: 0.05 nM

CC[C@H](C)[C@@H]([C@@H](CC(=O)N1CCC[C@H]1[C@H](OC)[C@@H](C)C(=O)N[C@H](C)[C@@H](O)c1ccccc1)OC)N(C)C(=O)[C@@H](NC(=O)[C@H](C(C)C)N(C)C(=O)OCc1ccc(NC(=O)[C@H](CCCNC(N)=O)NC(=O)[C@@H](NC(=O)CCCCCN2C(=O)C=CC2=O)C(C)C)cc1)C(C)C [Free payload control (MC-VC-PAB-MMAE), MC-VC-PAB-MMAE] ({Hexanoyl(6-maleimido)}-V[Cit][PABC][NMeV]V[Dil][Dolaproine]-X1)
IC50 [1]: > 10 nM | Max Inh % [1]: −5.4% | IC50 [2]: > 10 nM | Max Inh % [2]: −0.6% | IC50 [3]: > 10 nM | Max Inh % [3]: 1% | Max Inh % [4]: −0.1% | IC50 [4]: > 10 nM | Max Inh % [5]: 1.3% | IC50 [5]: > 10 nM | Max Inh % [6]: 20.1% | IC50 [6]: > 10 nM

Isotype control (non-related hIgG1 antibody)
Max MFI [7]: 402 MFI | Max MFI [8]: 331 MFI | Max OD [9]: 0.014 OD450-OD540 | Max OD [10]: 0.014 OD450-OD540 | Max OD [11]: 0.015 OD450-OD540

B1: W3195-1.53.1-p1-uIgG1L-MMAE (antibody, V domains shown)
VH: QVQLQESGPGLVKPSETLSLTCTVSGGSVISDNYYWTWVRQPPGKGLEFIGYIYYRGSTNYNPSLKNRVIISIDTSRNQFSLDLNSVTAADTAVYYCARDRRTGNSLPFDNWGQGTLVTVSS
VL: SYELTQPPSVSVSPGQTAQITCSGDKLGDKFASWYQQKSGQSPVVVIYQDNKRPSGFPERFSGSNSGNTATLTISGTQAMDEADYYCQAWDSSIVVFGGGTKLTVLG
modifications: MC-vc-PAB-MMAE conjugated to cysteine thiols after TCEP reduction (positions not stated); HIC-DAR 3.86 per antibody
notes: also called W3195-p1-MMAE; WBP3195-p1-ADC
EC50 [7]: 0.17 nM | ADC Cytotoxicity on HCC-1954, IC50 [12]: 0.011 nM | ADC Cytotoxicity on HCC-70, IC50 [13]: 0.065 nM | ADC Cytotoxicity on NCI-H1650, IC50 [14]: 0.027 nM | Internalization of HCC-1954 cells in HCS assay, EC50 [15]: 0.023 nM | Internalization of NCI-H1650 cells in HCS assay, EC50 [16]: 0.22 nM | EC50 [8]: 0.075 nM | EC50 [17]: 0.17 nM | Max OD [17]: 0.75 OD450-OD540 | EC50 [18]: 0.23 nM | Max OD [18]: 0.65 OD450-OD540 | Max OD [9]: 0.19 OD450-OD540 | Max OD [10]: 0.16 OD450-OD540 | EC50 [11]: 0.2 nM | Max OD [11]: 0.95 OD450-OD540 | EC50 [19]: 0.15 nM | EC50 [20]: 0.18 nM | EC50 [21]: 0.17 nM | Kd [22]: 0.168 nM | EC50 [23]: 0.18 nM | binding result [24]: no binding (tested: about 20 nM) | binding result [25]: no binding (tested: about 20 nM)
